Our source for the fold less bound than NM23-S120G-dimer and amount of binding (RUs) values is patent US20240294590A1.

Assay [1] addresses Histidine tagged PSMGFR peptide (MUC1* extra cellular domain peptide). The experiment in a line: SPR, Biacore 3000, His-tagged PSMGFR peptide on NTA-Ni SAM chip; hexamer signal divided by 3.
Assay [2] has the same target. The assay can be described thus: SPR, Biacore 3000, His-tagged PSMGFR peptide on NTA-Ni SAM chip.

Chain of Histidine tagged PSMGFR peptide (MUC1* extra cellular domain peptide) (peptide, as listed by the source): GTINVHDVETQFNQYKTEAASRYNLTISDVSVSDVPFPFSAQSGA

In assay [1], “NM23-S120G-hexamer (non-refolded soluble-fraction preparation of NM23-H1 S120G) (from UniProt P15531 1-152) (ligand)” yielded a fold less bound than NM23-S120G-dimer of 12 fold. Besides, in assay [2], the amount of binding (RUs) was 100 RU.
